Values joined by “and” are separate entries in the source; they are usually repeats but may differ in a detail not shown here. Equal values may be shown once. Blank lines part the entries; values can stand above or below the substance they belong to.
Key:
[1] = target: RAGE C2_TM_CT Mutant 2 (six amino acids that cover the GxxxG motif deleted) (human); test: SEC-MALS; Superdex 200 Increase 10/300, 25 mM Tris-Cl, 0.2 M NaCl, pH 8.0, with 2x CMC DDM, room temperature; 'protein conjugate' analysis (ASTRA) of protein and detergent masses
[2] = target: RAGE V_C1 (V and C1 domains) (human); test: native MS; about 10 uM protein; 100 mM ammonium acetate for V_C1 and C2, 500 mM for V_C1_C2; nano-ESI
[3] = target: RAGE C2_TM_CT (C2 domain, transmembrane region and cytoplasmic tail) (human); test: ESI-MS under denaturing conditions; 50% acetonitrile and 0.1% formic acid added to the protein sample
[4] = target: RAGE C2_TM_CT (C2 domain, transmembrane region and cytoplasmic tail) (human); test: SEC-MALS; Superdex 200 Increase 10/300, 25 mM Tris-Cl, 0.2 M NaCl, pH 8.0, with 2x CMC DDM, room temperature; 'protein conjugate' analysis (ASTRA) of protein and detergent masses
[5] = target: RAGE C2_TM_CT Mutant 1 (four glycines in the region of the GxxxG motif mutated to alanine) (human); test: as above
[6] = target: RAGE V_C1_C2 (extracellular part of RAGE) (human); test: native MS; about 10 uM protein; 100 mM ammonium acetate for V_C1 and C2, 500 mM for V_C1_C2; nano-ESI
[7] = target: RAGE V_C1_C2 (extracellular part of RAGE) (human); test: AUC; sedimentation velocity, 20 C, 40,000 rpm, 25 mM Tris pH 7.5, 200 mM NaCl, absorbance 280 nm; c(s) distribution (bimodal f/f0 for C2)
[8] = target: full-length RAGE (receptor for advanced glycation end-products) (human) (UniProt Q15109); test: native MS; FL_RAGE about 10 uM in 600 mM ammonium acetate with 0.04% (2x CMC) Triton X-100; nano-ESI, collisional release from the micelle
[9] = target: full-length RAGE (receptor for advanced glycation end-products) (human) (UniProt Q15109); test: AUC; sedimentation velocity, 20 C, 42,000 rpm, 25 mM Tris pH 7.5, 200 mM NaCl with DDM; absorbance 280 nm and interference; f/fo analysis with the GUSSI Membrane Protein module for FL_RAGE
RAGE C2 domain (human) [10] = test: ESI-MS under denaturing conditions; 50% acetonitrile and 0.1% formic acid added to the protein sample
RAGE C2 domain (human) [11] = test: native MS; about 10 uM protein; 100 mM ammonium acetate for V_C1 and C2, 500 mM for V_C1_C2; nano-ESI
RAGE C2 domain (human) [12] = test: AUC; sedimentation velocity, 20 C, 40,000 rpm, 25 mM Tris pH 7.5, 200 mM NaCl, absorbance 280 nm; c(s) distribution (bimodal f/f0 for C2)
RAGE C2 domain (human) [13] = test: SEC-MALS; Superdex 200 Increase 10/300, 25 mM Tris-Cl, 0.2 M NaCl, pH 8.0, room temperature, no detergent; C2 fractions re-chromatographed separately

stoichiometry N [1]: 2
Substance: RAGE C2_TM_CT Mutant 2 (six amino acids that cover the GxxxG motif deleted) (domain or fragment)

fraction of dimeric signals [2]: 12% | stoichiometry N [2]: 2
Substance: RAGE V_C1 (V and C1 domains) (domain or fragment)

stoichiometry N [3]: 2 and 4 and 6 | stoichiometry N [4]: 2
Substance: RAGE C2_TM_CT (C2 domain, transmembrane region and cytoplasmic tail) (domain or fragment)

stoichiometry N [5]: 2 and 3
Substance: RAGE C2_TM_CT Mutant 1 (four glycines in the region of the GxxxG motif mutated to alanine) (domain or fragment)

fraction of dimers [6]: 11% | stoichiometry N [6]: 2 | percent of the signal in the dimer peak [7]: 17% | stoichiometry N [7]: 2
Substance: RAGE V_C1_C2 (extracellular part of RAGE) (domain or fragment)

stoichiometry N [8]: 2 and 3 and 4 | stoichiometry N [9]: 2 and 3
Substance: full-length RAGE (receptor for advanced glycation end-products) (from UniProt Q15109 23-404)

fraction of dimeric peaks under denaturing conditions (RAGE C2 domain (human) [10]): 27% | stoichiometry N (RAGE C2 domain (human) [10]): 2 | fraction of dimeric signals (RAGE C2 domain (human) [11]): 33% | stoichiometry N (RAGE C2 domain (human) [11]): 2 | percent of the total signal in the dimer (RAGE C2 domain (human) [12]): > 65% | stoichiometry N (RAGE C2 domain (human) [12]): 2 | stoichiometry N (RAGE C2 domain (human) [13]): 2
Substance: RAGE C2 domain (domain or fragment)

Reference: article PMC6937306
